This note sets out measurements from the DeepSol protein solubility set.

A short description of the data set: soluble on expression in E. coli; label from the status in PepcDB or PDB records.
Turning to “MNRARKTSSCGCFRSAFCLLKPSTSSASEEHGDSDKKLLSVQLITPRDEEEQTSSRSIKIPPLDLNGLDCKKNAVAARRAGRRRTSEGGGVRGKGHFAEVVLDGLQRPVSLLRNQKEKSNSDDNCQEKEPTSPSSSRKKSYDNAPALESLEKLRYILHQLNSGQLPLEDLKRNIEYAALVLETAYMDETRRICDEDDDLAEVTPETVPDEVREWLAATFTRQNAGKKRDKPKFKSVANAIRTGIFFEKLFRKQQVVQCPIPPEIAELMKEVCTWSFSPFQLNEVSEGHALKYVGFELFNRYGFMDRFKVPLTALENYLSALEVGYSKHNNPYHNVVHAADVTQSSHFMLSQTGLANSLGDLELLAVLFGALIHDYEHTGHTNNFHIQSQSQFAMLYNDRSVLENHHVSSCFRLMKEDDKNILTHLTRDEYKELRNMVIEIVLATDMSTHFMQIKTMKSMLSLPEGIDKNKALCLIVHACDISHPAKPWNLHERWTEGVLEEFFRQGDLEASMGLPYSPLCDRHTVHVADSQIGFIDFIVEPTMVVCGELLVKMVEPLVSLPPTDSLFPPSVDGGDDKSPSNALSPLPDLRNSSTSPSSIRRIPLNYAGKLDIPTPWMKFLHENKAHWKERAAKEEEERKIKEAAEAEAAAKQVEENKENGVTTN”, the “soluble on expression in E. coli” value is “not soluble”. Take “MNRCILLALLPLISAIPVAVNIDDQDAVNLGAYDRARFDLVESFHPLQPASAVTNDQIAEVRAKAAGVRQNEASISIDLPTQMLSGSSGRIPERLAFGEWTEWTSWSMCQNGERSRVRTCVSRKPALRVVCHGDAIEIEKCYVDAGEGHIPVAADPWSIEREISGDFA”: the “soluble on expression in E. coli” value is “not soluble”. Consider “MNRTKGDEEEYWNSSKFKAFTFDDEDDELSQLKESKRAVNSLRDFVDDDDDDDLERVSWSGEPVGSISWSIRETAGNSGSTHEGREQLKSRNSFSSYAQLPKPTSTYSLSSFFRGRTRPGSFQSLSDALSDTPAKSYAPELGRPKGEYRDYSNDWSPSDTVRRLRKGKVCSLERFRSLQDKLQLLEEAVSMHDGNVITAVLIFLKRTLSKEILFRELEVRQVALRHLIHFLKEIGDQKLLLDLFRFLDRTEELALSHYREHLNIQDPDKRKEFLKTCVGLPFSAEDSAHIQDHYTLLERQIIIEANDRHLESAGQTEIFRKHPRKASILNMPLVTTLFYSCFYHYTEAEGTFSSPVNLKKTFKIPDKQYVLTALAARAKLRAWNDVDALFTTKNWLGYTKKRAPIGFHRVVEILHKNNAPVQILQEYVNLVEDVDTKLNLATKFKCHDVVIDTYRDLKDRQQLLAYRSKVDKGSAEEEKIDALLSSSQIRWKN”, for which the “soluble on expression in E. coli” value was “soluble”. For the sequence “MNRVDLSIFIPDSLTAETGDLKIKTYKVVLIARAASIFGVKRIVIYHDDADGEARFIRDILTYMDTPQYLRRKVFPIMRELKHVGILPPLRTPHHPTGKPVTGEYRQGLTVKRVKKGTLVDIGADKLALCREKLTVNRIMSFRVVRLGKEILIEPDEPEDRYWGYEVLDTRRNLAESLKTVGADVVVATSRNASPITSILDEVKTRMRGAREAAILFGGPYKGLPEIDADIWVNTLPGQCTETVRTEEAVLATLSVFNMLTQIDEKDE”, the “soluble on expression in E. coli” value is “soluble”. The result for “MNSDDEIYMEGSASSEDDMDDECLSDDDGIARHDQSASDYLNKKDKDNEVLDHDSLEAEMKKAISEVEAVLQVKTGVCRILLHKYKWNKESLLERFYEHPDTIAFLIDAQVIPRQQEVIPAGDAECDICCSMDELSGLSCNHRACAECWQAYLTNKIVSDAQSEIECMAPNCKLLIEDEKVLSYISDPTMVSKYRKLMVASYVEINCLLRWCPGIDCGKAVKVSHWEPRLVVCSCGTCFCFSCGQNWHEPLNCRHLKKWIKKCQDDSETMNWINANTKDCPKCMIPIEKNGGCNRMLCTNSGCRYEFCWMCLEPWTKHGYQYACNGYDETAVKNPQDAQEISRANLKRYLFYFNRYMGHEQSLQLEGKLNIKVAKKMEQMENMSMSWIEVQFLRKAVDILSECRRTLMYTYAFAFYLKKDNNSIIFESNQANLEMETEQLSGFLERDLEDEDLVTLKQKVQDKYRYVEQRRKVLLDHCAEGAEQDIWQYND” reads “not soluble”; that for “MNSELKARYKVLGSEKEHTKSETLTETLIEVIVNGDVEPGSKISEPELARKYQVSRGPLREALMRLEGLGLIERIPHVGARVTTFSPAKLIELYSVREALEGMAARLAARHITQEELLSLEMLLSTHSKHIDQVEGASYFHQHGDFDFHYRIIQASRNSKLISLLCDELYHLLRMYRYQSPRAQSRPNEALTEHKFILEAIRNRDEELAEMLMRRHISGSRKLIQSQIIHTESLDKD”, “not soluble”.
